Assays:
[1] = target: T1, NbVIP2 (N. benthamiana VIP2) in pGAD424 (Nicotiana benthamiana, UniProt Q52JK6 1-603); assay: yeast two-hybrid, growth on triple dropout (-Leu/-Trp/-His) plates
T1 construct: also called pGAD-NbVIP2; GenBank DQ000202
T1 sequence: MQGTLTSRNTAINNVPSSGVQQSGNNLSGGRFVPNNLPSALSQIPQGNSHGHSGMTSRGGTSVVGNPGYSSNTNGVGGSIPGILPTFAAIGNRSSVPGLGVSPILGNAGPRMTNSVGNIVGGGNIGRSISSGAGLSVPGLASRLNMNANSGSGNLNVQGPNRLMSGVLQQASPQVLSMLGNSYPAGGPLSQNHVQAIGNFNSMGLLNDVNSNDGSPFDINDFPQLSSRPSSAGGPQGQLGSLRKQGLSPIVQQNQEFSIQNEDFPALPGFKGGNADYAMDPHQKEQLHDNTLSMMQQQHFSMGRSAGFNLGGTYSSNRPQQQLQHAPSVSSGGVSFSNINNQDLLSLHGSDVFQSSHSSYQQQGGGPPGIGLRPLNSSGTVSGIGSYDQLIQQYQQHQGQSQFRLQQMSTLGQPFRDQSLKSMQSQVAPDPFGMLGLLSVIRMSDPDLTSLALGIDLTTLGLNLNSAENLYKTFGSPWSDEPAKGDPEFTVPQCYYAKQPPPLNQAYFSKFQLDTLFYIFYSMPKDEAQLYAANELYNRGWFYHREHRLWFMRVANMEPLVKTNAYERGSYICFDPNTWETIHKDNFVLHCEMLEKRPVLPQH

[2] = target: T2, AtVIP2 (Arabidopsis VirE2-Interacting Protein 2), largest cDNA clone in pGAD424 (Arabidopsis thaliana, UniProt Q9FPW4 59-614); assay: yeast two-hybrid, HIS3 and beta-galactosidase reporters
T2 construct: also called At5g59710; GenBank AF295433
T2 sequence: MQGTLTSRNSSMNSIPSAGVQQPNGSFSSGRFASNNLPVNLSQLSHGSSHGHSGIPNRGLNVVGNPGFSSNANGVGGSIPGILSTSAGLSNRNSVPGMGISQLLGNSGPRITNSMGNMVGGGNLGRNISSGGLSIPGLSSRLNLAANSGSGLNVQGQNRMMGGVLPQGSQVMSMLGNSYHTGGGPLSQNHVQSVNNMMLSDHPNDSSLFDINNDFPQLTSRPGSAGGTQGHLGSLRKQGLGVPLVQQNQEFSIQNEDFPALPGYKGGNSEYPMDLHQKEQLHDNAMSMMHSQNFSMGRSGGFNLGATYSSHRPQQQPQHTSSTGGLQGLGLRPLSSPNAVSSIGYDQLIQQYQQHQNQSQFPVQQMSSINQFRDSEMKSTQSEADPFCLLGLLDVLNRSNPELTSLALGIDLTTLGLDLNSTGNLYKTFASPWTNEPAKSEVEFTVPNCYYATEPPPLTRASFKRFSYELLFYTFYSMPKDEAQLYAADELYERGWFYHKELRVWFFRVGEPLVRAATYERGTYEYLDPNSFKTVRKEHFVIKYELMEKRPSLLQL

B1: human lamin C (other)
chain: SEEVVSREVSGIKAAYEAELGDARKTLDSVAKERARLQLELSKVREEFKELKARNTKKEGDLIAAQARLKDLEALLNSKEAALSTALSEKRTLEGELHDLRGQVAKLEAALGEAKKQLQDEMLRRVDAENRLQTMKEELDFQKNIYSEELRETKRRHETRLVEID
notes: also called pSTT-LaminC
binding result [1]: no binding
binding result [2]: no binding

Source: US20090271896A1 (SAMUEL ROBERTS NOBLE FOUNDATION, published 2009)
